# Assay results from US20250276081A1, “Mucin-Active Proteases and Methods of Use” (priority 2022, published 2025).
# Assays:
# [1] = tested on: Siglec-7 ligand (K562, CCRF-CEM, CCRF-HSB-2 cells); experiment: Siglec-7-Fc flow cytometry of leukemia cell lines; assay type: cell-based; settings: 50 nM StcE, 1 h
# Description: (§1) CD43 and Siglec-7-Fc flow cytometry. 1×10^6 K562, CCRF-CEM, or CCRF-HSB-2 cells growing in log phase were harvested, resuspended in 1 mL of serum-free RPMI, and treated with either vehicle or 50 nM StcE for 1 h. Cells were subsequently spun down at 600× g and washed twice in PBS. Cells were then resuspended in FACS buffer (0.5% BSA in PBS) at 1×10^6 cells/mL and aliquoted into a V-bottom 96-well plate (Corning) at 1×10^5 cells/well. For staining, a precomplex solution of 1 μg/mL Siglec-7-Fc (R&D Systems) and 1 μg/mL Alexa Fluor 488-antihFc was made up in FACS buffer and incubated on ice for 1 h. Alexa Fluor 647 CD43/sialophorin antibody (MEM-59 clone) (Novus Biologicals) was subsequently added to the precomplex solution prior to staining. Cells were stained in 100 μL of staining solution for 30 min, washed twice with FACS buffer, and analyzed by flow cytometry using a BD Accuri C6 plus.
# [2] = molecular target: T1, cell surface CD43 (K562, CCRF-CEM, CCRF-HSB-2 cells) (Homo sapiens, UniProt P16150); experiment: CD43 flow cytometry of leukemia cell lines; assay type: cell-based; settings: 50 nM StcE, 1 h
# T1 construct: endogenous in cells; host or cells: K562, CCRF-CEM, CCRF-HSB-2
# T1 sequence (P16150 20-400): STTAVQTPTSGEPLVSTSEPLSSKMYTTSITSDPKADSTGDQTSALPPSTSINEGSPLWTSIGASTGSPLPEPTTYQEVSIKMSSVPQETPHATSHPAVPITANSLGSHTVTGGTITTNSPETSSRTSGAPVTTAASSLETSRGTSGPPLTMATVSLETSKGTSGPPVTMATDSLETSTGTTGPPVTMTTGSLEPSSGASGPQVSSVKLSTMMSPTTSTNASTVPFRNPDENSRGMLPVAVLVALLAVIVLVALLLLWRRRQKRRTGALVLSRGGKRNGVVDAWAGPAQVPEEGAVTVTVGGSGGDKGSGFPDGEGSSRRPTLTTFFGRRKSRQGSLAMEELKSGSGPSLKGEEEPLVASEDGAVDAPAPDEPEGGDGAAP
# Description: as §1
# [3] = In vivo toxicity of StcE (maximum tolerated dose, necropsy); set-up: species or system mouse
# Description: In vivo toxicity studies. 10-week-old C57BL/6 mice (bred in-house) were injected with PBS or StcE (0.15 mg/kg or 15 mg/kg) via intravenous injection. 9-week-old female BALB/cJ mice (Jackson Labs) were injected with PBS or 10 mg/kg αHER2-eStcE via intraperitoneal injection. Mice were submitted to the Animal Diagnostic Lab at Stanford University for necropsy and complete blood count (CBC) analyses 3 h post injection.
# [4] = In vivo biodistribution of IRdye 800CW-labeled StcE; settings: 0.25 mg/kg I.P.
substance,measurement,setting,value
"StcE: secreted protease of C1 esterase inhibitor, zinc metalloprotease pan mucinase from E. coli O157:H7; SEQ ID NO:1",Siglec-7 ligand residency,[1],loss of cell surface CD43 and overall Siglec-7 ligand residency
same,Cell surface CD43 level,[2],loss of cell surface CD43
same,Necropsy and CBC findings,[3]; 3 hours post injection of 15 mg/kg StcE I.V.,"hemorrhages underneath the skull, ecchymoses throughout the gastrointestinal tract, neutrophil accumulation in the lungs, and platelet depletion"
same,Maximum tolerated dose,[3]; Balb/c and C57BL/6 mice,0.25 mg/kg
same,Toxicity above the maximum tolerated dose,[3]; doses higher than 0.25 mg/kg,systemic toxicity
same,Time remaining in circulation,[4],at least 20 hours
